T1: AtfA::6His (Aspergillus fumigatus AkuB, UniProt Q4WY05 1-555)
T1 sequence: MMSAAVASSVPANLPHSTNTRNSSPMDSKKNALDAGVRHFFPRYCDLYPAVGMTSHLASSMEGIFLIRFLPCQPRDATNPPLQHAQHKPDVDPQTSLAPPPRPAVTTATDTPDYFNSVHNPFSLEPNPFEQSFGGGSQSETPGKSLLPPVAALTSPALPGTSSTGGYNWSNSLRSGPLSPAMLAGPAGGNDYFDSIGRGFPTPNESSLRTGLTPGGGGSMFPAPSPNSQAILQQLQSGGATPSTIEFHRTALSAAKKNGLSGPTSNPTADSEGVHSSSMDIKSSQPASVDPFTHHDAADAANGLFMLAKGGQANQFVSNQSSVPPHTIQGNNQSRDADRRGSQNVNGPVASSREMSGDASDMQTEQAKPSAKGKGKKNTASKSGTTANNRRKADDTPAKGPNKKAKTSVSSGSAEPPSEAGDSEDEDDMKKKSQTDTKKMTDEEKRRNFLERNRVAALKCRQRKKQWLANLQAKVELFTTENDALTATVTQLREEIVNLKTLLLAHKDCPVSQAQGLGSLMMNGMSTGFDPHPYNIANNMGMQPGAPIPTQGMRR


Columns and labels:
GST::PacC (30-195*) = GST::PacC (30-195*) (Aspergillus nidulans? (plasmid …, UniProt Q00202 30-195)); experiment: EMSA
AtfA::6His = molecular target: T1, AtfA::6His; experiment: EMSA

Sequence of GST::PacC (30-195*) (Aspergillus nidulans? (Q00202 30-195): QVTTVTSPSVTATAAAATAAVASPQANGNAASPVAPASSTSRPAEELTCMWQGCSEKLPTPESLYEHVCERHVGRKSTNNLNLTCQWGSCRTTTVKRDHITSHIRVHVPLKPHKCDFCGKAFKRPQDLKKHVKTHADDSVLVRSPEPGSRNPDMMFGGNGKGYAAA

Binder | binding result (GST::PacC (30-195*)) | binding result (AtfA::6His)
PacC probe (DprB promoter, -264) (dsDNA) DNA 1: GGGTCGATCCAGGTACCGCCAGGGGTTGATATGACAG DNA 2: GGGCTGTCATATCAACCCCTGGCGGTACCTGGATCGA | binds | –
A-142 probe (DprA promoter) (dsDNA) DNA 1: GGGCTCCCCGGCTTCTTGACGTAACCCCCAGACATGA DNA 2: GGGTCATGTCTGGGGGTTACGTCAAGAAGCCGGGGAG | – | binds
A-23 probe (DprA promoter) (dsDNA) DNA 1: GGGCAGTTCAAATACAGAACGTCACAAATCTTACACA DNA 2: GGGTGTGTAAGATTTGTGACGTTCTGTATTTGAACTG | – | binds
